Starred links: 1 amine or outer side, 2 acyl side, 3 side chain; linkers in the order of their positions; H or OH if unused. Positions of bridges follow the written chain, without caps; N, C: chain ends. Non-standard residues stand in square brackets, D forms with d. Groups on a side chain read outwards from the residue. *: point of attachment. PEG12 = NCCOCCOCCOCCOCCOCCOCCOCCOCCOCCOCCOCCOCCC(=O)O; Phe(3,4-F2) = N[C@@H](Cc1ccc(F)c(F)c1)C(=O)O; Dip = N[C@H](C(=O)O)C(c1ccccc1)c1ccccc1; γGlu = O=C(O)[C@H](CCC(=O)[*:2])N[*:1]; 2Nal = N[C@@H](Cc1ccc2ccccc2c1)C(=O)O; AEF = NCCOc1ccc(C[C@H](N)C(=O)O)cc1; Palmitoyl = CCCCCCCCCCCCCCCC(=O)*; β3hF = N[C@H](CC(=O)O)Cc1ccccc1; Isovaleryl = CC(C)CC(=O)*; Npc = nipecotic acid; βAla = NCCC(=O)O
Molecular target: T1, human ferroportin (SLC40A1) fused with GFP, stably expressed in HEK293 cells (human, UniProt Q9NP59 1-571)
T1 sequence (looked up): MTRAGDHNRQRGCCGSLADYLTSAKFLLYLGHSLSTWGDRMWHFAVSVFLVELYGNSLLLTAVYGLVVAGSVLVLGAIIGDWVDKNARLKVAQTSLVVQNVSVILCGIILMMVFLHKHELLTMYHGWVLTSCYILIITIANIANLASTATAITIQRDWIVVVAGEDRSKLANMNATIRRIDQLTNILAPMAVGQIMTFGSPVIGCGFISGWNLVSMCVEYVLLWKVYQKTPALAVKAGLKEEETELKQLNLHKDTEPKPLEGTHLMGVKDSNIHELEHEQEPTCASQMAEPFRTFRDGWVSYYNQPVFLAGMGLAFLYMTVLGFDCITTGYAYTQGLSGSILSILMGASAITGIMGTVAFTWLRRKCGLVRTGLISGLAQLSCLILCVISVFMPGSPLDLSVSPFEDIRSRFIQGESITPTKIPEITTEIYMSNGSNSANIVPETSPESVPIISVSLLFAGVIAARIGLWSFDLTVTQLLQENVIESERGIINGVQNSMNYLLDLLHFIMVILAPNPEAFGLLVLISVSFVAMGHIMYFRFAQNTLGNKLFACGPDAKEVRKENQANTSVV
Test: cell-based or functional assay

Row | Binder | FPN IC50 [nM]
1 | DTHFPCIKFKPCK (Isovaleric acid-DTHFPCIKF-Lys[PEG11-Palm]-PCK-NH2) [Compd ID 9] | 15
2 | DTHXPCIKFKC (Isovaleric acid-DTH-[Dpa]-PCI-[(D)Lys]-F-[Lys(Peg11-Palm)]-C-NH2) [Compd ID 135] | 22
3 | DTHXPCIKXKKC (Isovaleric acid-DTH-[Dpa]-PCI-[(D)Lys]-[Dpa]-[Lys(Peg11-Palm)]-[(D)Lys]-C-NH2) [Compd ID 131] | 14
4 | DTHXPCIKFKKC (Isovaleric acid-DTH-[Phe(4-COOH)-PCI-[(D)Lys]-F-[Lys(Peg11-Palm)]-[(D)Lys]-C-NH2) [Compd ID 120] | > 1000
5 | Isovaleryl-DIH[Dip]PCI[dK]FK([PEG12-Palmitoyl])[dK]C-NH2 (disulfide 6-12 (inferred)) [Compd ID 130] | 169
6 | DTHFPXIKFKKX (Isovaleric acid-DTHFP-[a-MeCys]-I-[(D)Lys]-F-[Lys(Peg11-Palm)]-K-[a-MeCys]-NH2) [Compd ID 115] | 4
7 | DTHXPXIKFKXX (Isovaleric acid-DTH-[Dpa]-P-[Hcy]-I-[(D)Lys]-F-[Lys(Peg11-Palm)]-[Dap]-[Hcy]-NH2) [Compd ID 142] | 12
8 | DTHXPCIKFKKC (Isovaleric acid-DTH-[a-MePhe]-PCI-[(D)Lys]-F-[Lys(Peg11-Palm)]-[(D)Lys]-C-NH2) [Compd ID 128] | 204
9 | Isovaleryl-DTH[Dip][Npc]CI[dK]FK([PEG12-Palmitoyl])[dK]C-NH2 (disulfide 6-12 (inferred)) [Compd ID 117] | 2
10 | Isovaleryl-DTHF[Npc]CI[dK]FK([PEG12-Palmitoyl])[dK]C-NH2 (disulfide 6-12 (inferred)) [Compd ID 118] | 6
11 | Isovaleryl-DTHFPCI[dK]FK([PEG12-Palmitoyl])CK-NH2 (disulfide 6-11 (inferred)) [Compd ID 144] | 32
12 | DTHXPCIKFKKX (Isovaleric acid-DTH-[Dpa]-PCI-[(D)Lys]-F-[Lys(Peg11-Palm)]-K-[N-Me-Cys]-NH2) [Compd ID 133] | 13.5
13 | DTHXPCIKXKKC (Isovaleric acid-DTH-[Dpa]-PCI-[(D)Lys]-[b-hPhe]-[Lys(Peg11-Palm)]-[(D)Lys]-C-NH2) [Compd ID 122] | 5
14 | Isovaleryl-DTH[Dip][Npc]CI[dK][AEF]K([PEG12-Palmitoyl])KC-NH2 (disulfide 6-12 (inferred)) [Compd ID 111] | > 3000
15 | Isovaleryl-DTH[Dip][Npc]CI[dK][Phe(3,4-F2)]K([PEG12-Palmitoyl])KC-NH2 (disulfide 6-12 (inferred)) [Compd ID 127] | 3
16 | Isovaleryl-DTH[Dip][Npc]CI[dK][2Nal]K([PEG12-Palmitoyl])KC-NH2 (disulfide 6-12 (inferred)) [Compd ID 112] | 4
17 | DTHFPCIKFKC (Isovaleric acid-DTHFPCIKF-Lys[PEG11-Palm]-C-NH2) [Compd ID 8] | 6
18 | DTHXPCIKFKKC (Isovaleric acid-DTH-[Dpa]-PCI-[(D)Lys]-F-[Lys(Peg11-Palm)]-[(D)Lys]-C-NH2) [Compd ID 139] | 19.5
19 | Isovaleryl-DTH[Dip]PCI[βAla][β3hF]K([PEG12-Palmitoyl])[dK]C-NH2 (disulfide 6-12 (inferred)) [Compd ID 145] | 18
20 | DTHXPCIKFKKX (Isovaleric acid-DTH-[Dpa]-PCI-[(D)Lys]-F-[Lys(Peg11-Palm)]-[(D)Lys]-[N-Me-Cys]-NH2) [Compd ID 134] | 22.5
21 | DTHXPCIKFKKX (Isovaleric acid-DTH-[Dpa]-PCI-[(D)Lys]-F-[Lys(Peg11-Palm)]-[(D)Lys]-Pen-NH2) [Compd ID 132] | 4
22 | DTHFPXIKFKKC (Isovaleric acid-DTHFP-[a-MeCys]-I-[(D)Lys]-F-[Lys(Peg11-Palm)]-K-C-NH2) [Compd ID 116] | 11
23 | DTHXPCIKFKXC (Isovaleric acid-DTH-[Dpa]-PCI-[(D)Lys]-F-[Lys(Peg11-Palm)]-[Dab]-C-NH2) [Compd ID 137] | 23
24 | DTHFPCIKFKKX (Isovaleric acid-DTH-F-PCI-[(D)Lys]-F-[Lys(Peg11-Palm)]-K-[a-MeCysl-NH2) [Compd ID 114] | 3
25 | DTHXPXIKFKXC (Isovaleric acid-DTH-[Dpa]-P-[Hcy]-I-[(D)Lys]-F-[Lys(Peg11-Palm)]-[Dap]-C-NH2) [Compd ID 141] | 26.5
26 | DTHXPCIKFKXX (Isovaleric acid-DTH-[Dpa]-PCI-[(D)Lys]-F-[Lys(Peg11-Palm)]-[Dap]-[Hcy]-NH2) [Compd ID 143] | 18
27 | DTHXPCIKFKXC (Isovaleric acid-DTH-[Dpa]-PCI-[(D)Lys]-F-[Lys(Peg11-Palm)]-[Orn]-C-NH2) [Compd ID 136] | 27
28 | DTHXPCIKFKXX (Isovaleric acid-DTH-[Dpa]-PCI-[(D)Lys]-F-[Lys(Peg11-Palm)]-[Dap]-[Pen]-NH2) [Compd ID 140] | 51
29 | DTHXPCIKFKXC (Isovaleric acid-DTH-[Dpa]-PCI-[(D)Lys]-F-[Lys(Peg11-Palm)]-[b-hLys]-C-NH2) [Compd ID 138] | 20.5
30 | DTHXPCIKFKKC (Isovaleric acid-DTH-[b-hPhe]-PCI-[(D)Lys]-F-[Lys(Peg11-Palm)]-[(D)Lys]-C-NH2) [Compd ID 121] | 9

Molecular target: T2, human ferroportin (SLC40A1) fused in frame with the GFP protein, stably expressed in HEK293 cells (human, UniProt Q9NP59 1-571)
T2 sequence (looked up): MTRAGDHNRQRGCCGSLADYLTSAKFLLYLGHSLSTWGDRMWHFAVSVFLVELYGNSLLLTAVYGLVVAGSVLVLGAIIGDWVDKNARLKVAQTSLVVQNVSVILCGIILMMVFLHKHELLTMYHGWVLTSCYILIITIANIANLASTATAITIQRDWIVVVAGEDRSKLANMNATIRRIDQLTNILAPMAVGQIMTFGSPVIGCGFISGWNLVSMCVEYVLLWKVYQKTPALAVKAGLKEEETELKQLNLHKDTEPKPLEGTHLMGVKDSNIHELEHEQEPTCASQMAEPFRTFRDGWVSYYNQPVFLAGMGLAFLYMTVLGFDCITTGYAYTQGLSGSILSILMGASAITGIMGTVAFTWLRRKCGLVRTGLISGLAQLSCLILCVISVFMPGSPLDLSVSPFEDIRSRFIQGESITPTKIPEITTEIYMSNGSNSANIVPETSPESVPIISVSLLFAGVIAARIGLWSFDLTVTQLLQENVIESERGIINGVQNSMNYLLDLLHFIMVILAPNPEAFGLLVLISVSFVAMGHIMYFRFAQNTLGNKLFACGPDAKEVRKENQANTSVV
Test: cell-based or functional assay

Row | Binder | FPN IC50 [nM]
31 | Isovaleryl-DTHFPCIK([γGlu-Palmitoyl])FEPC-NH2 (disulfide 6-12; SMILES CCCCCCCCCCCCCCCC(=O)N[C@@H](CCC(=O)NCCCC[C@@H]1NC(=O)[C@H]([C@@H](C)CC)NC(=O)[C@@H](NC(=O)[C@@H]2CCCN2C(=O)[C@H](Cc2ccccc2)NC(=O)[C@H](Cc2c[nH]cn2)NC(=O)[C@@H](NC(=O)[C@H](CC(=O)O)NC(=O)CC(C)C)[C@@H](C)O)CSSC[C@@H](C(N)=O)NC(=O)[C@@H]2CCCN2C(=O)[C@H](CCC(=O)O)NC(=O)[C@H](Cc2ccccc2)NC1=O)C(=O)O) [Compd ID 205] | 64
32 | Isovaleryl-DTHFPCIK([γGlu-Palmitoyl])FEPRSKGC-NH2 (disulfide 6-16; SMILES CCCCCCCCCCCCCCCC(=O)N[C@@H](CCC(=O)NCCCC[C@@H]1NC(=O)[C@H]([C@@H](C)CC)NC(=O)[C@@H](NC(=O)[C@@H]2CCCN2C(=O)[C@H](Cc2ccccc2)NC(=O)[C@H](Cc2c[nH]cn2)NC(=O)[C@@H](NC(=O)[C@H](CC(=O)O)NC(=O)CC(C)C)[C@@H](C)O)CSSC[C@@H](C(N)=O)NC(=O)CNC(=O)[C@H](CCCCN)NC(=O)[C@H](CO)NC(=O)[C@H](CCCNC(=N)N)NC(=O)[C@@H]2CCCN2C(=O)[C@H](CCC(=O)O)NC(=O)[C@H](Cc2ccccc2)NC1=O)C(=O)O) [Compd ID 201] | 9
33 | Isovaleryl-DTHFPCIK([γGlu-Palmitoyl])FEPRSC-NH2 (disulfide 6-14; SMILES CCCCCCCCCCCCCCCC(=O)N[C@@H](CCC(=O)NCCCC[C@@H]1NC(=O)[C@H]([C@@H](C)CC)NC(=O)[C@@H](NC(=O)[C@@H]2CCCN2C(=O)[C@H](Cc2ccccc2)NC(=O)[C@H](Cc2c[nH]cn2)NC(=O)[C@@H](NC(=O)[C@H](CC(=O)O)NC(=O)CC(C)C)[C@@H](C)O)CSSC[C@@H](C(N)=O)NC(=O)[C@H](CO)NC(=O)[C@H](CCCNC(=N)N)NC(=O)[C@@H]2CCCN2C(=O)[C@H](CCC(=O)O)NC(=O)[C@H](Cc2ccccc2)NC1=O)C(=O)O) [Compd ID 203] | 15
34 | Isovaleryl-DTHFPCIK([γGlu-Palmitoyl])FEPRC-NH2 (disulfide 6-13; SMILES CCCCCCCCCCCCCCCC(=O)N[C@@H](CCC(=O)NCCCC[C@@H]1NC(=O)[C@H]([C@@H](C)CC)NC(=O)[C@@H](NC(=O)[C@@H]2CCCN2C(=O)[C@H](Cc2ccccc2)NC(=O)[C@H](Cc2c[nH]cn2)NC(=O)[C@@H](NC(=O)[C@H](CC(=O)O)NC(=O)CC(C)C)[C@@H](C)O)CSSC[C@@H](C(N)=O)NC(=O)[C@H](CCCNC(=N)N)NC(=O)[C@@H]2CCCN2C(=O)[C@H](CCC(=O)O)NC(=O)[C@H](Cc2ccccc2)NC1=O)C(=O)O) [Compd ID 204] | 14
35 | Isovaleryl-DTHFPCIK([γGlu-Palmitoyl])FEPRSKC-NH2 (disulfide 6-15; SMILES CCCCCCCCCCCCCCCC(=O)N[C@@H](CCC(=O)NCCCC[C@@H]1NC(=O)[C@H]([C@@H](C)CC)NC(=O)[C@@H](NC(=O)[C@@H]2CCCN2C(=O)[C@H](Cc2ccccc2)NC(=O)[C@H](Cc2c[nH]cn2)NC(=O)[C@@H](NC(=O)[C@H](CC(=O)O)NC(=O)CC(C)C)[C@@H](C)O)CSSC[C@@H](C(N)=O)NC(=O)[C@H](CCCCN)NC(=O)[C@H](CO)NC(=O)[C@H](CCCNC(=N)N)NC(=O)[C@@H]2CCCN2C(=O)[C@H](CCC(=O)O)NC(=O)[C@H](Cc2ccccc2)NC1=O)C(=O)O) [Compd ID 202] | 11

Source: US20200361992A1 (PROTAGONIST THERAPEUTICS, published 2020)
